Results from paper PMC8979947.
Values belong to the molecule of their own block, whether it stands above or below them.

Assays:
talin R3-IVVI domain [1] = biological target: talin R3-IVVI domain
talin R3-IVVI domain [2] = biological target: talin R3-IVVI domain; remark: listed apart in the source
talin R3-IVVI domain [3] = biological target: talin R3-IVVI domain; remark: listed apart in the source
talin R3-IVVI domain [4] = biological target: talin R3-IVVI domain; remark: listed apart in the source

Molecule: DnaJ (from UniProt P08622 1-376) (natural protein)
- intersection force (equal unfolding and refolding rates) of R3-IVVI, force-clamp chevron plot, with 1 µM DnaJ; control 9.7 pN (talin R3-IVVI domain [1]): 7.9 pN

Molecule: DnaK (from UniProt P0A6Y8 1-638) (natural protein)
- intersection force (equal unfolding and refolding rates) of R3-IVVI, force-clamp chevron plot, with 3 µM apo-DnaK; control 9.7 pN (talin R3-IVVI domain [1]): 6 pN
- unfolding force (confirmed as intersection force of the chevron plot) of R3-IVVI with DnaK + DnaJ + ADP (DnaKJ-ADP) (talin R3-IVVI domain [4]): 6.3 pN
- unfolding force (confirmed as intersection force of the chevron plot) of R3-IVVI with DnaK and ATP; ~6 pN with apo-DnaK (talin R3-IVVI domain [4]): 7.6 pN

Further lines, results first:

- intersection force of R3-IVVI, chevron plot, with Hsp40; control 9.7 pN (talin R3-IVVI domain [2]): 7.8 pN
Molecule: Hsp40, human recombinant protein (from UniProt P25685 1-340) (natural protein)

- intersection force of R3-IVVI, chevron plot, with Hsp70; control 9.7 pN (talin R3-IVVI domain [2]): 7.2 pN
- half-point force of R3-IVVI with Hsp70 (talin R3-IVVI domain [3]): 7.2 pN
- half-point force of R3-IVVI with Hsp70 and its inhibitor pifithrin-µ (PFT-µ, binds the substrate-binding domain of Hsp70) (talin R3-IVVI domain [3]): 9.5 pN
Molecule: Hsp70, human recombinant protein (from UniProt P0DMV8 1-641) (natural protein)

- intersection force (equal unfolding and refolding rates) of R3-IVVI, force-clamp chevron plot, with 60 µM DsbA; control 9.7 pN (talin R3-IVVI domain [1]): 14.9 pN
B1: oxidized DsbA (enzyme)
chain: AQYEDGKQYTTLEKPVAGAPQVLEFFSFFCPHCYQFEEVLHISDNVKKKLPEGVKMTKYHVNFMGGDLGKDLTQAWAVAMALGVEDKVTVPLFEGVQKTQTIRSASDIRDVFINAGIKGEEYDAAWNSFVVKSLVAQQEKAAADVQLRGVPAMFVNGKYQLNPQGMDTSNMDVFVQQYADTVKYLSEKK
modifications: oxidized (0.3% H2O2 overnight)
